Assay results from PMC4856307, “A Hidden Transhydrogen Activity of a FMN-Bound Diaphorase under Anaerobic Conditions” (PLoS ONE, 2016).

Tests used:
Experiment in all cases: purified protein
Format in all cases: biochemical, Geobacillus stearothermophilus
purified protein [1] = substrate: NC(=S)c1ccc[n+]([C@@H]2O[C@H](COP(=O)([O-])OP(=O)(O)OC[C@H]3O[C@@H](n4cnc5c(N)ncnc54)[C@H](O)[C@@H]3O)[C@@H](O)[C@H]2O)c1; conditions: hydride donor NAD(P)H; anaerobic (argon)
purified protein [2] = substrate: NC(=S)c1ccc[n+]([C@@H]2O[C@H](COP(=O)(O)OP(=O)(O)OC[C@H]3O[C@@H](n4cnc5c(N)ncnc54)[C@H](OP(=O)(O)O)[C@@H]3O)[C@@H](O)[C@H]2O)c1; conditions: hydride donor NAD(P)H; anaerobic (argon)
purified protein [3] = substrate: NC(=O)C1=CN([C@@H]2O[C@H](COP(=O)(O)OP(=O)(O)OC[C@H]3O[C@@H](n4cnc5c(N)ncnc54)[C@H](OP(=O)(O)O)[C@@H]3O)[C@@H](O)[C@H]2O)C=CC1; conditions: acceptor thio-NAD+; anaerobic (argon); 1x TBS pH 7.4, room temperature; pH 7.4
purified protein [4] = substrate: NC(=O)C1=CN([C@@H]2O[C@H](COP(=O)(O)OP(=O)(O)OC[C@H]3O[C@@H](n4cnc5c(N)ncnc54)[C@H](O)[C@@H]3O)[C@@H](O)[C@H]2O)C=CC1; conditions: acceptor thio-NAD+; anaerobic (argon); 1x TBS pH 7.4, room temperature; pH 7.4

B1: FMN-bound diaphorase (FMN-DI, DI, GsDI) (Geobacillus stearothermophilus) (protein)
chain: MTKVLYITAHPHDDTQSYSMAVGKAFIETYKQVHPDHEVIHLDLYKEYIPEIDVDVFSGWGKLRSGKSFEELSDEEKAKVGRMNELCEQFISADKYVFVTPMWNFSFPPVLKAYIDAVAVAGKTFKYTEQGPVGLLTDKKALHIQARGGFYSEGPAAEMEMGHRYLSVIMQFFGVPSFEGLFVEGHAAMPEKAEEIKANAIARAKDLAHTF
notes: full length from 636-bp DNA fragment, E. coli BL21 Star (DE3), plasmid pET20b-Gsdi, Ni-resin purified (C-terminal His tag implied by reverse primer)
B1 was tested, and the Km (purified protein [1]) was 917 µM, the kcat (purified protein [1]) was about 2.4 s⁻¹ and the Km (purified protein [2]) was 4813 µM. For the same protein, the kcat (purified protein [2]) was about 0.26 s⁻¹, the Km (purified protein [3]) was 699 ± 49 µM and the kcat (purified protein [3]) was 1.93 ± 0.06 s⁻¹. For the same protein, the Km (purified protein [4]) was 24 ± 3 µM and the kcat (purified protein [4]) was 1.64 ± 0.05 s⁻¹.
